This note sets out measurements from patent US20230220042A1 (SHANGHAI JIAO TONG UNIVERSITY SCHOOL OF MEDICINE, published 2023).

First the molecules themselves.
T1: Biotin-FcγRIIB (human, UniProt P31994 43-217, limits assumed, biotin-labelled)
T1 construct: Bought, biotin-labelled; used at 1 µg/ml for staining and sorting; also called human FcγRIIB; CD32b
T1 sequence (looked up): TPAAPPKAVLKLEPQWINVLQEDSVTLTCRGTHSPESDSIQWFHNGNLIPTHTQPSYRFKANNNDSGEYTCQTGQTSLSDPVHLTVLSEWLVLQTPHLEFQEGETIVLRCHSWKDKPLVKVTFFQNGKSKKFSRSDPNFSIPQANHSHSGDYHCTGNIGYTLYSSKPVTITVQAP

B1: human IgG2 anti-mouse CD40 surface displayed antibody, Fc mutant S267E/P271V (antibody, name in EU numbering)
light chain (with the P2A rest): DTVLTQSPALAVSPGERVTISCRASDSVSTLMHWYQQKPGQQPKLLIYLASHLESGVPARFSGSGSGTDFTLTIDPVEADDTATYYCQQSWNDPWTFGGGTKLELKRTVAAPSVFIFPPSDEQLKSGTASVVCLLNNFYPREAKVQWKVDNALQSGNSQESVTEQDSKDSTYSLSSTLTLSKADYEKHKVYACEVTHQGLSSPVTKSFNRGECGSGATNFSLLKQAGDVEENPG
heavy chain: EVQLVESDGGLVQPGRSLKLPCAASGFTFSDYYMAWVRQAPTKGLEWVASISYDGSSTYYRDSVKGRFTISRDNAKSTLYLQMDSLRSEDTATYYCGRHSSYFDYWGQGVMVTVSSASTKGPSVFPLAPCSRSTSESTAALGCLVKDYFPEPVTVSWNSGALTSGVHTFPAVLQSSGLYSLSSVVTVPSSNFGTQTYTCNVDHKPSNTKVDKTVERKCCVECPPCPAPPVAGPSVFLFPPKPKDTLMISRTPEVTCVVVDVEHEDVEVQFNWYVDGVEVHNAKTKPREEQFNSTFRVVSVLTVVHQDWLNGKEYKCKVSNKGLPAPIEKTISKTKGQPREPQVYTLPPSREEMTKNQVSLTCLVKGFYPSDIAVEWESNGQPENNYKTTPPMLDSDGSFFLYSKLTVDKSRWQQGNVFSCSVMHEALHNHYTQKSLSLSPGKLEPPPSTVSNMATVAVLVVLGAAIVTGAVVAFVMKMRRRNTGGKGGDYALAPGSQTSDLSLPDCKVMVHDPHSLA
notes: as m1; positions are Eu numbers; copies: 2 + 2
B2: human IgG2 anti-mouse CD40 surface displayed antibody, Fc mutant S267E/P271Y (antibody, name in EU numbering)
light chain (with the P2A rest): B1 light chain (with the P2A rest)
heavy chain: B1 heavy chain with V266Y
notes: as for B1
B3: human IgG2 anti-mouse CD40 surface displayed antibody, Fc mutant S267E/D270H (antibody, name in EU numbering)
light chain (with the P2A rest): B1 light chain (with the P2A rest)
heavy chain: B1 heavy chain with D265H, V266P
notes: as for B1
B4: human IgG2 anti-mouse CD40 surface displayed antibody, Fc mutant S267E/P271W (antibody, name in EU numbering)
light chain (with the P2A rest): B1 light chain (with the P2A rest)
heavy chain: B1 heavy chain with V266W
notes: as for B1
B5: human IgG2 anti-mouse CD40 surface displayed antibody, Fc mutant G327L (antibody, name in EU numbering)
light chain (with the P2A rest): B1 light chain (with the P2A rest)
heavy chain: B1 heavy chain with E262S, V266P, G322L
notes: as for B1
B6: human IgG2 anti-mouse CD40 surface displayed antibody, Fc mutant G327S (antibody, name in EU numbering)
light chain (with the P2A rest): B1 light chain (with the P2A rest)
heavy chain: B1 heavy chain with E262S, V266P, G322S
notes: as for B1
B7: human IgG2 anti-mouse CD40 surface displayed antibody, Fc mutant L328N (antibody, name in EU numbering)
light chain (with the P2A rest): B1 light chain (with the P2A rest)
heavy chain: B1 heavy chain with E262S, V266P, L323N
notes: as for B1

Numbering of substitutions follows the chain as printed. Names and notes keep the numbering of the source.

The first test concerns the target FcγRIIA^131R (human) (UniProt P12318). Nature of the test: ELISA, coated antibody, biotin-FcγR.
As for IgG2 N297A (antibody), the Absorbance value turned out to be 0.04 A650.

A further test addresses Biotin-FcγRIIB (human) (UniProt P31994). In words: FACS sorting of displayed Fc library on biotin-FcγRIIB, NGS.
“human IgG2 anti-mouse CD40 surface displayed antibody, Fc mutant D270H” came in with an Increased factor b Site 2 (point mutation/wild-type) of 1.3.

Take “human IgG2 anti-mouse CD40 surface displayed antibody, Fc mutant T299S”: the Increased factor b Site 2 (point mutation/wild-type) was 0.6.

“human IgG2 anti-mouse CD40 surface displayed antibody, Fc mutant S298D” showed an Increased factor b Site 2 (point mutation/wild-type) of 1.6.

In turn, “human IgG2 anti-mouse CD40 surface displayed antibody, Fc mutant P271W” yielded an Increased factor b Site 2 (point mutation/wild-type) of 0.4.

In the case of “human IgG2 anti-mouse CD40 surface displayed antibody, Fc mutant G236V”, the Increased factor b Site 2 (point mutation/wild-type) stood at 0.5.

In turn, “human IgG2 anti-mouse CD40 surface displayed antibody, Fc mutant T299W” gave an Increased factor b Site 2 (point mutation/wild-type) of 0.5.

In turn, “human IgG2 anti-mouse CD40 surface displayed antibody, Fc mutant I332T” had an Increased factor b Site 2 (point mutation/wild-type) of 1.6.

On to “human IgG2 anti-mouse CD40 surface displayed antibody, Fc mutant P329S”, for which the Increased factor b Site 2 (point mutation/wild-type) came to 1.2.

On to “human IgG2 anti-mouse CD40 surface displayed antibody, Fc mutant I332E”, for which the Increased factor b Site 2 (point mutation/wild-type) turned out to be 1.1.

The molecule “human IgG2 anti-mouse CD40 surface displayed antibody, Fc mutant T299A” gave an Increased factor b Site 2 (point mutation/wild-type) of 0.4.

Another test has the same target. In words: NGS of 3T3 display library C2 flow-sorted for FcγRIIB binding.
“human IgG2 anti-mouse CD40 surface displayed antibody, V234Q/V266L/S267D/H268D/E269D/P271Q” had an enrichment factor, percentage after 3rd sorting/percentage after 2nd sorting of 15.4; a percentage after 2nd sorting of 0%; a percentage after 3rd sorting of 0.04%.

In another test the target is T1, Biotin-FcγRIIB. Nature of the test: FACS sorting of displayed Fc library on biotin-FcγRIIB, NGS.
As for B1, the “Enrichment factor (after/before sorting)” value turned out to be 22.1 and the “Increased factor a (enrichment factor/wild-type enrichment factor)” value turned out to be 38.4.

Take B2: the “Enrichment factor (after/before sorting)” value is 19.2 and the “Increased factor a (enrichment factor/wild-type enrichment factor)” value worked out at 33.4.

On to B3, for which the “Enrichment factor (after/before sorting)” value worked out at 42.7 and the “Increased factor a (enrichment factor/wild-type enrichment factor)” value is 74.3.

For B4, the “Enrichment factor (after/before sorting)” value was determined as 24 and the “Increased factor a (enrichment factor/wild-type enrichment factor)” value turned out to be 41.8.

The target of a further test is T1, Biotin-FcγRIIB. Nature of the test: FACS sorting of displayed Fc library on biotin-FcγRIIB, NGS; reference S267E.
Turning to B1, the “Increased factor 2 c Site 1 (combined/point mutation)” value amounted to 1.4.

Consider B2, for which the “Increased factor 2 c Site 1 (combined/point mutation)” value amounted to 1.2.

As for B3, the “Increased factor 2 c Site 1 (combined/point mutation)” value came out at 2.6.

In the case of B4, the “Increased factor 2 c Site 1 (combined/point mutation)” value was found to be 1.5.

A further test has as its target T1, Biotin-FcγRIIB. Nature of the test: magnetic sorting on biotin-FcγRIIB with unlabelled activating FcγRs, NGS; Library4. As for the experimental part:
3T3 cells were collected by trypsin digestion, and a single cell suspension was prepared. […] The cells were incubated for 15 minutes on ice and then washed twice with MACS buffer and re-suspended in 100 μl MACS buffer. Twenty-five μl anti-Biotin magnetic beads were added, and the cells were incubated for 15 minutes on ice and then washed once with MACS buffer and re-suspended to 500 μl, and added to the LS column put in the magnetic field. The effluent was collected, washed with 3 mL of MACS buffer and collected; The LS column was then removed out of the magnetic field, and 5 mL of MACS buffer was used to rapidly elute the remaining cells from the sorting column to collect positive cells, which are the high I/A ratio cells.
The high-FcγRIIB-affinity cells obtained from the above flow cytometry sorting are further sorted by magnetic-activated sorting. The cells are incubated with the mixture of Biotin-labeled FcγRIIB and non-labeled activating FcγRs, and then the labeled cells are sorted by anti-Biotin magnetic beads. The enrichment ratios after sorting relative to before sorting are analyzed by NGS.
With B5, the “Enrichment factor (percentage after sorting/percentage before sorting)” value worked out at 3.77, the “Increased factor (mutation enrichment factor/wild-type enrichment factor)” value turned out to be 4.28, the “Percentage after sorting/unbinding percentage” value stood at 3.8 and the “Percentage before sorting/unbinding percentage” value turned out to be 1.01.

As for B6, the “Enrichment factor (percentage after sorting/percentage before sorting)” value came out at 6.9, the “Increased factor (mutation enrichment factor/wild-type enrichment factor)” value is 7.84, the “Percentage after sorting/unbinding percentage” value was 71.2 and the “Percentage before sorting/unbinding percentage” value worked out at 10.3.

Take B7: the “Enrichment factor (percentage after sorting/percentage before sorting)” value is 2.73, the “Increased factor (mutation enrichment factor/wild-type enrichment factor)” value came out at 3.11, the “Percentage after sorting/unbinding percentage” value was determined as 50.9 and the “Percentage before sorting/unbinding percentage” value worked out at 18.6.
